Reference: the supplement of paper PMC10567573

B1: IKZF1 (parent)
chain: YHSQDRYEFSSHITRGEHRFHMS

Variants of: B1
Test: protein stability index of a GFP-peptide fusion (GPS, HEK-293T) (PSI 1-6); higher = more stable
Conditions: c terminus: native
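Further: lentivirally expressed fusions sorted by FACS into six bins by GFP to DsRed ratio, PSI derived from sequencing read proportions per bin multiplied by bin number.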

Point of comparison: YHSQDRYEFSSHITFGEHRFHMS [R15F], protein stability index 2.34. Against it:
- YHSQDTYEFSSHITRGEHRFHMS [R6T] — lower, 1.8
- YHSQDPYEFSSHITRGEHRFHMS [R6P] — lower, 2.23
- YHSQDDYEFSSHITRGEHRFHMS [R6D] — higher, 2.49
- YHSQDQYEFSSHITRGEHRFHMS [R6Q] — lower, 1.9
- YHSQDMYEFSSHITRGEHRFHMS [R6M] — higher, 2.65
- YHSQDHYEFSSHITRGEHRFHMS [R6H] — lower, 1.8
- YHSQDIYEFSSHITRGEHRFHMS [R6I] — lower, 2.25
- YHSQDRYTFSSHITRGEHRFHMS [E8T] — higher, 3.44
- YHSQDRYSFSSHITRGEHRFHMS [E8S] — higher, 3.3
- YHSQDRYQFSSHITRGEHRFHMS [E8Q] — lower, 2.17
- YHSQDRYVFSSHITRGEHRFHMS [E8V] — lower, 1.98
- YHSQDRYYFSSHITRGEHRFHMS [E8Y] — higher, 3.85
- YHSQDRYFFSSHITRGEHRFHMS [E8F] — higher, 3.7
- YHSQDRYAFSSHITRGEHRFHMS [E8A] — higher, 2.79
- DHSQDRYEFSSHITRGEHRFHMS [Y1D] — higher, 4.05
- NHSQDRYEFSSHITRGEHRFHMS [Y1N] — higher, 4.05
- SHSQDRYEFSSHITRGEHRFHMS [Y1S] — higher, 4.05
- QHSQDRYEFSSHITRGEHRFHMS [Y1Q] — higher, 3.99
- PHSQDRYEFSSHITRGEHRFHMS [Y1P] — higher, 3.84
- THSQDRYEFSSHITRGEHRFHMS [Y1T] — higher, 3.5
- LHSQDRYEFSSHITRGEHRFHMS [Y1L] — higher, 3.37
- FHSQDRYEFSSHITRGEHRFHMS [Y1F] — lower, 1.73
- IHSQDRYEFSSHITRGEHRFHMS [Y1I] — higher, 3.35
- WHSQDRYEFSSHITRGEHRFHMS [Y1W] — higher, 2.94
- YHSQDRYEFSSHIGRGEHRFHMS [T14G] — lower, 1.54
- YHSQDRYEFSSHIHRGEHRFHMS [T14H] — lower, 1.99
- YHSQDRYEFSSHILRGEHRFHMS [T14L] — lower, 2.23
- YHSQDRYEFSSHIIRGEHRFHMS [T14I] — lower, 2.15
- YHSQDRYEFSSHIFRGEHRFHMS [T14F] — lower, 1.47
- YHSQDRYEFSSHIPRGEHRFHMS [T14P] — lower, 1.52
- YHSQDRYEFSSHISRGEHRFHMS [T14S] — lower, 1.85
- YHSQDRYEYSSHITRGEHRFHMS [F9Y] — lower, 1.95
- YHSQDRYERSSHITRGEHRFHMS [F9R] — lower, 1.67
- YHSQDRYENSSHITRGEHRFHMS [F9N] — lower, 1.8
- YHSQDRYEQSSHITRGEHRFHMS [F9Q] — lower, 1.17
- YHSQDRYEHSSHITRGEHRFHMS [F9H] — lower, 2.04
- YHSQDRYETSSHITRGEHRFHMS [F9T] — lower, 1.49
- YHSQDRYELSSHITRGEHRFHMS [F9L] — lower, 1.96
- YHSQDRYEDSSHITRGEHRFHMS [F9D] — lower, 1.98
- YHSQDRYEISSHITRGEHRFHMS [F9I] — lower, 2.03
- YHSQDRYESSSHITRGEHRFHMS [F9S] — higher, 3.12
- YHSQDRYEMSSHITRGEHRFHMS [F9M] — higher, 2.44
- YHSQDRYEKSSHITRGEHRFHMS [F9K] — lower, 2.05
- YHSQDRYEPSSHITRGEHRFHMS [F9P] — lower, 1.73
- YHSQDRYEFPSHITRGEHRFHMS [S10P] — lower, 2.08
- YHSQDRYEFQSHITRGEHRFHMS [S10Q] — lower, 2.08
- YHSQDRYEFCSHITRGEHRFHMS [S10C] — lower, 1.56
- YHSQDRYEFVSHITRGEHRFHMS [S10V] — lower, 1.95
- YHSQDRYEFNSHITRGEHRFHMS [S10N] — lower, 1.72
- YHSQDRYEFFSHITRGEHRFHMS [S10F] — lower, 2.1
- YHSQDRYEFESHITRGEHRFHMS [S10E] — lower, 1.74
- YHSQDRYEFRSHITRGEHRFHMS [S10R] — lower, 1.9
- YHSQDRYEFTSHITRGEHRFHMS [S10T] — lower, 1.62
- YHSQDRYEFMSHITRGEHRFHMS [S10M] — lower, 1.6
- YHSQDRYEFDSHITRGEHRFHMS [S10D] — lower, 1.74
- YHSQDRYEFSSLITRGEHRFHMS [H12L] — lower, 2.06
- YHSQDRYEFSSCITRGEHRFHMS [H12C] — higher, 2.66
- YHSQDRYEFSSRITRGEHRFHMS [H12R] — higher, 2.79
- YHSQDRYEFSSYITRGEHRFHMS [H12Y] — lower, 1.98
- YHSQDRYEFSSPITRGEHRFHMS [H12P] — lower, 2.27
- YHSQDRYEFSSEITRGEHRFHMS [H12E] — higher, 2.47
- YHSQDRYEFSSVITRGEHRFHMS [H12V] — higher, 2.49
- YHSQDRYEFSSAITRGEHRFHMS [H12A] — lower, 1.71
- YHSQDRYEFSSIITRGEHRFHMS [H12I] — lower, 1.92
- YHSQDRYEFSSGITRGEHRFHMS [H12G] — higher, 3.61
- YHSQDRYEFSSQITRGEHRFHMS [H12Q] — higher, 2.83
- YHSQDRYEFSSKITRGEHRFHMS [H12K] — lower, 2.31
- YFSQDRYEFSSHITRGEHRFHMS [H2F] — higher, 2.51
- YYSQDRYEFSSHITRGEHRFHMS [H2Y] — higher, 2.85
- YVSQDRYEFSSHITRGEHRFHMS [H2V] — higher, 2.58
- YLSQDRYEFSSHITRGEHRFHMS [H2L] — lower, 2.02
- YGSQDRYEFSSHITRGEHRFHMS [H2G] — higher, 3.11
- YCSQDRYEFSSHITRGEHRFHMS [H2C] — lower, 2.04
- YISQDRYEFSSHITRGEHRFHMS [H2I] — lower, 1.94
- YKSQDRYEFSSHITRGEHRFHMS [H2K] — lower, 2.01
- YESQDRYEFSSHITRGEHRFHMS [H2E] — higher, 3.98
- YPSQDRYEFSSHITRGEHRFHMS [H2P] — higher, 3.48
- YMSQDRYEFSSHITRGEHRFHMS [H2M] — higher, 2.48
- YASQDRYEFSSHITRGEHRFHMS [H2A] — higher, 2.5
- YDSQDRYEFSSHITRGEHRFHMS [H2D] — higher, 3.76
- YRSQDRYEFSSHITRGEHRFHMS [H2R] — higher, 3.37
- YQSQDRYEFSSHITRGEHRFHMS [H2Q] — higher, 2.4
- YHSQLRYEFSSHITRGEHRFHMS [D5L] — lower, 2.17
- YHSQIRYEFSSHITRGEHRFHMS [D5I] — higher, 2.41
- YHSQWRYEFSSHITRGEHRFHMS [D5W] — higher, 3.3
- YHSQSRYEFSSHITRGEHRFHMS [D5S] — lower, 1.79
- YHSQGRYEFSSHITRGEHRFHMS [D5G] — higher, 2.85
- YHSQFRYEFSSHITRGEHRFHMS [D5F] — higher, 2.55
- YHSQPRYEFSSHITRGEHRFHMS [D5P] — lower, 2.04
- YHSQKRYEFSSHITRGEHRFHMS [D5K] — higher, 3.72
- YHSQNRYEFSSHITRGEHRFHMS [D5N] — lower, 1.84
- YHSQHRYEFSSHITRGEHRFHMS [D5H] — higher, 2.74
- YHSQDRYEFSSHITLGEHRFHMS [R15L] — lower, 2.12
- YHSQDRYEFSSHITDGEHRFHMS [R15D] — lower, 2
- YHSQDRYEFSSHITNGEHRFHMS [R15N] — lower, 1.99
- YHSQDRYEFSSHITMGEHRFHMS [R15M] — lower, 1.47
